Among the data in patent publication US20150299252A1 are Kd values, retold here.

Where no end group is shown, it is not given here.

The test deals with T1, Fc-chimeric NKG2D, P26718.
T1 chain: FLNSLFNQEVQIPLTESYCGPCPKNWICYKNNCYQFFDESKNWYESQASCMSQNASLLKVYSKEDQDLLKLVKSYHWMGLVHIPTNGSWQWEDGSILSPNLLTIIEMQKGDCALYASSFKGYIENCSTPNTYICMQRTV

B1: biotinylated SVH1C (quadravalent, C-terminal ε-biotinyl-lysine amide) (peptide)
peptide: NPSHPLSGGGGS
chain: KKKK
modifications: not fully specified (some residues, C-terminus); also: quadravalent: four peptide copies on lysine scaffold
By Kd is commonly meant the equilibrium constant for the complex coming apart. Low values mean higher affinity, high ones lower affinity. For B1, the Kd amounted to 1000 nM.
